# Laboratory results reported in publication PMC10484735.
# B1: Bacteriophage T4 gene 32 protein (gp32), full-length (natural protein)
# chain: MFKRKSTAELAAQMAKLNGNKGFSSEDKGEWKLKLDNAGNGQAVIRFLPSKNDEQAPFAILVNHGFKKNGKWYIETCSSTHGDYDSCPVCQYISKNDLYNTDNKEYSLVKRKTSYWANILVVKDPAAPENEGKVFKYRFGKKIWDKINAMIAVDVEMGETPVDVTCPWEGANFVLKVKQVSGFSNYDESKFLNQSAIPNIDDESFQKELFEQMVDLSEMTSKDKFKSFEELNTKFGQVMGTAVMGGAAATAAKKADKVADDLDAFNVDDFNTKTEDDFMSSSSGSSSSADDTDLDDLLNDL
# How the values were obtained:
# [1] = test system: *II (gp32 N-terminal truncate) (bacteriophage T4); assay: optical tweezers (koff/kon); conditions: 15 pN tension; kon 0.0024 nM-1 s-1, koff 0.11 s-1; Optical tweezers buffer, pH and temperature not in the material (lower salt than AFM; 15 pN for Kd); AFM: 150 mM Na+, 100 uM spermidine, 37 C, 5 min
# [2] = test system: gp32 (WT) (bacteriophage T4); assay: optical tweezers (koff/kon); conditions: 15 pN tension; kon 0.003 nM-1 s-1; cooperative binding to bare ssDNA; Optical tweezers buffer, pH and temperature not in the material (lower salt than AFM; 15 pN for Kd); AFM: 150 mM Na+, 100 uM spermidine, 37 C, 5 min
# [3] = target: Bacteriophage T4 gene 32 protein (gp32), full-length (bacteriophage T4) (UniProt P03695)
# [4] = target: Bacteriophage T4 gene 32 protein (gp32), full-length (bacteriophage T4) (UniProt P03695); remark: listed apart in the source
# [5] = target: Bacteriophage T4 gene 32 protein (gp32), full-length (bacteriophage T4) (UniProt P03695); remark: listed apart in the source
Molecule,Kd [1] [nM],Kd [2] [nM],"maximal compaction of 8.1 knt ssDNA at 15 pN (optical tweezers, constant force), WT gp32 against the noncooperative truncate *II that lacks the N-terminal domain [3] [fold]","persistence length of the gp32–ssDNA complex (WLC fit of force-extension curves up to 5 pN, optical tweezers; plateau at gp32 ≥25 nM, up to 1 μM) [4] [nm]","rate of ssDNA compaction after bimolecular binding (kc, two-step fit of k+1 against gp32 concentration at 15 pN, optical tweezers) [5] [s^−1]"
8.1 knt ssDNA (optical tweezers),46,1,–,–,–
B1,–,–,4,20,1.5
